Data as given in publication PMC8927971.

Tested on: CIZ1 N571 (GST-N571) (Mus musculus)
Assay: EMSA
Conditions: 0.3 nM RNA; 10 mM Tris-HCl pH 7.5, 30 mM NaCl, 2.5 mM MgCl2, 0.2 mM DTT, 0.1% IGEPAL CA-630, 0.1 mg/ml yeast tRNA, 0.4 U RNaseOUT, 1% glycerol; 30 C 20 min; 0.7% agarose …

| Substance | K half |
| --- | --- |
| Xist repeat E proximal | 100 nM |
| Xist repeat A | 200 nM |
